Measured values published in US11827701B2, “IL-6 binding molecules” (argenx BV, priority 2012, dated 2023).
Several values for one entry are separate records, joined by “and”; a condition that tells them apart may be missing. Equal values may be shown once.

Tests used:
[1] = biological target: biotinylated (prokaryotic) IL-6 (Homo sapiens, UniProt P05231); experiment: Surface plasmon resonance (Biacore), biotinylated IL-6 captured on streptavidin sensor chip; type: binding; conditions: purified Fab
Protocol: (§1) The binding kinetics of IL-6-specific Fabs that were able to cross-compete with the B-E8 antibody was assessed using surface plasmon resonance (Biacore). Specifically, biotinylated (prokaryotic) IL-6 was captured on a streptavidin biacore sensor chip (CM5-SA) and different concentrations of purified Fabs were injected during 3 minutes following by a 5 minute wash with buffer. From the washing phase the off-rate (kd) was determined, while from the injection phase the on-rate (ka) was calculated using the concentration and off-rate as parameters. […] The binding kinetics of antagonistic purified Fabs (Table 3) and periplasmic fractions of Fab-expressing bacteria (Table 4) were also evaluated by surface plasmon resonance (Biacore) using both bacterially and eukaryotically produced human IL-6 directly coated on a CM5 chip. The Fabs tested had off-rates between 6×10^−4 and 2×10^−5 s^−1.

[2] = biological target: T1, eukaryotically produced human IL-6 (Homo sapiens, UniProt P05231); experiment: Surface plasmon resonance (Biacore), eukaryotically produced human IL-6 coated on CM5 chip; type: binding
T1 construct: purchased Humanzyme HZ-1044; host or cells: Human Embryonic kidney cells
Protocol: as §1
(§2) VL chain shuffling was used to improve the affinity of the Fabs 17F10, 18C7, 18C9, 18C11, 20A4, 29B11, 16D2 and 28A6. In this method, the heavy chain of these clones (as a VHCH1 fragment) was reintroduced into the primary phagemid-light chain library (see Example 1). Affinity selections were performed to select for chain shuffled Fabs with an improved affinity for IL-6. The binding kinetics of chain shuffled Fabs were evaluated by surface plasmon resonance (Biacore) using both bacterially and eukaryotically produced human IL-6, and cynomolgus monkey IL-6 (Tables 5-7). The VH and VL amino acid sequences of exemplary IL-6-specific Fabs selected by the VL chain shuffling method are set forth in Table 14 below.
(§3) VH chain shuffling was also used to improve the affinity of the Fab 24D10. In this method, the light chain of 24D10 was reintroduced into the primary phagemid-heavy chain library (see Example 1) and selected using an off-rate assay. In this type of selection, the phage were allowed to bind to antigen on a substrate for 1.5 to 2 hours. At round 2, after 15 washes with PBS-Tween, an additional wash was performed with the presence of excess soluble IL-6. […] This procedure avoids re-binding of such phage to the coated target. […] The binding kinetics of chain shuffled Fabs and the benchmark antibodies, BE8 and GL18, were evaluated by surface plasmon resonance (Biacore) using both bacterially and eukaryotically produced human IL-6 (Tables 8 and 9). The VH and VL amino acid sequences of exemplary IL-6-specific Fabs selected by the VH chain shuffling method are set forth in Table 14 below. […]

[3] = biological target: T2, bacterially produced human IL-6 (Homo sapiens, UniProt P05231); experiment: Surface plasmon resonance (Biacore), bacterially produced human IL-6 coated on CM5 chip; type: binding
T2 construct: His
Protocol: as §1, §2, §3

[4] = biological target: T3, cynomolgus monkey IL-6 (Macaca fascicularis, UniProt P79341); experiment: Surface plasmon resonance (Biacore), cynomolgus monkey IL-6; type: binding
T3 construct: His
Protocol: as §2

[5] = biological target: T4, human IL-6 (Homo sapiens, UniProt P05231); experiment: IL-6 neutralizing bioassay, 7TD1 cell proliferation; type: cell-based; conditions: relative to 68F2
T4 construct: host or cells: IL-6 added from outside to murine 7TD1 hybridoma cells
Protocol: The in vitro efficacy of clones 133E5, 133A9, 133H2, 111B1, 104C1, 129D3, 68F2, 61H7, were also determined using a cell-based neutralizing bioassay using the 7TD1 cell line, essentially as described in Van Snick et al. PNAS; 83, :9679 (1986), which is hereby incorporated by reference in its entirety. 7TD1 cells are a murine hybridoma cell line formed by fusion of the mouse myeloma cell line Sp2/0-Ag14 with spleen cells from a C57BL/6 mouse immunized with Escherichia coli lipopolysaccharides three days before fusion. The 7TD1 cell line is dependent on IL-6 for its growth and IL-6 withdrawal leads to cell death by apoptosis.
Briefly, 7TD1 cells (7.10E3) were incubated for 2-4 h in RPMI1640 medium+10% FCS before addition of IL-6 (75 pg/ml final concentration) in microtiter plates (200 ul final volume). The cells were incubated 3 days at 37C, before washing with PBS and addition of 60 ul of substrate solution (p-nitrophenyl-N-acetyl-β-D-glucosaminide (Sigma N-9376); 7.5 mM substrate in 0.05 M NaCitrate pH 5; 0.25 vol % triton X-100) for 4 h. The enzymatic reaction was stopped with 90 ul of stop solution (100 mM glycine+10 mM EDTA pH 10.4) and OD at 405 nm measured.
The VH and VL of the germlined versions of 68F2 were recloned in pUPE Heavy Chain and Light Chain expression vectors, respectively, for transient expression of full-length IgG1 antibodies. After transient expression in HEK293E cells, IgG1 antibodies were purified with protein A and quantified by measurement of OD280. Table 19 below summarizes the production levels of the germlined derivatives together with the levels of the 68F2 parental antibody. Potencies (in pM) were also measured in a 7TD1 based proliferation assay for each antibody.

[6] = biological target: T4, human IL-6; experiment: IL-6 neutralizing bioassay, B9 cell proliferation ([3H]thymidine); type: cell-based; conditions: B9 cells; relative to 68F2 average IC50
Protocol: The in vitro efficacy of clones 129D3, 68F2, 61H7, 133A9, 133H2, 133E5 and 132E7 were determined using a cell-based neutralizing bioassay using the B9 cell line, essentially as described in Helle et al. 1988, Eur. J. Immunol 18; 1535-1540. B9 cells are derived from the murine B cell hybridoma cell line B13.29, which require IL-6 for survival and proliferation and respond to very low concentrations of human IL-6. […] B9 cells were seeded in IL-6-free medium at 5000 cells/200 microl in flat-bottom wells in the presence of IL-6, with and without antibodies. Proliferation was measured by a [3H]thymidine pulse at 64-72 h.

[7] = euk, periplasmic fractions, 29B11 chain shuffled
[8] = bact, periplasmic fractions, 29B11 chain shuffled
[9] = cy/cyno, periplasmic fractions, 29B11 chain shuffled

biotinylated (prokaryotic) IL-6, sequence (P05231 30-212): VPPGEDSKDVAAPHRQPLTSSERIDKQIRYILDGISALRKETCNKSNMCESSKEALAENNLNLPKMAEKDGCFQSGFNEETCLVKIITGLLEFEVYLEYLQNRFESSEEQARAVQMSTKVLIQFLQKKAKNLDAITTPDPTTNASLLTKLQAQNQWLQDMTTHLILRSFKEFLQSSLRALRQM
T2 sequence (P05231 30-212): as above
T4 sequence (P05231 30-212): as above
T1 sequence (P05231 30-212): as above
T3 sequence (P79341 28-212): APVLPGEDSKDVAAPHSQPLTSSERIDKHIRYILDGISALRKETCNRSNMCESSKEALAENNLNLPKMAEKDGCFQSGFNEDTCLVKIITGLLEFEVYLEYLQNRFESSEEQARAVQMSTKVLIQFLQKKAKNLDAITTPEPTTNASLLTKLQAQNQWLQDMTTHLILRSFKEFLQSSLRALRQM

B1: 29B11: antagonistic IL-6-specific Fab clone from immunized llama (antibody, listed as Lama glama, V domains shown)
VH: EVQLVESGGGLVQPGGSLRLSCAASGFTFSSYAMSWVRQAPGKGLEWVSRISSGGISTYYADSVKGRFTISRDNAKNTLYLQMNSLKPEDTAVYYCVRYAWGVQWAFDFWGQGTQVTVSS
VL: QSVLTQPPSVSGSPGQTVTISCAGTSEDVGYGNYVSWYQQLPGMAPKLLIYDVNKRASGIADRFSGSKSGNTASLTISGLQSEDEADYYCASYRRTIDNIFGGGTHLTVLG
KA [1]: 4.36e+07 M⁻¹
Rmax [1]: 23.3 RU
ka [1]: 130000 M⁻¹ s⁻¹
kd [1]: 0.00298 s⁻¹
KA [2, 7]: 1.83e+09 M⁻¹
ka [2, 7]: 187000 M⁻¹ s⁻¹
kd [2, 7]: 0.000102 s⁻¹
KA [3, 8]: 1.91e+09 M⁻¹
ka [3, 8]: 251000 M⁻¹ s⁻¹
kd [3, 8]: 0.000131 s⁻¹
KA [4, 9]: 1.51e+08 M⁻¹
ka [4, 9]: 113000 M⁻¹ s⁻¹
kd [4, 9]: 0.000746 s⁻¹

B2: 18C7: antagonistic IL-6-specific Fab clone from immunized llama (antibody, listed as Lama glama, V domains shown)
VH: EVQLVESGPGLVKPSQTLSLTCTVSGGSITASFDAWSWIRQPPGKGLEWMGVIAYDGSTYYSPSLKSRTSISRDTSKNQFSLQLSSVTPEDTAVYYCARKSSWLIGYGMDYWGKGTLVTVSS
VL: QAGLTQPSALSVTLGQTAKITCQGGSLGSSYAHWYQQKPGQAPVLVIYDDDSRPSGIPERFSGSSSGGRATLTISGAQAEDEGDYYCQSADSSGNAAVFGGGTHLTVLG
KA [1]: 5.7e+07 M⁻¹
Rmax [1]: 43.9 RU
ka [1]: 105000 M⁻¹ s⁻¹
kd [1]: 0.00185 s⁻¹
Koff eukIL-6 ([2]; purified chain-shuffled Fabs): 0.001 s⁻¹ and 0.00082 s⁻¹
Koff HIS-huIL-6 ([3]; purified chain-shuffled Fabs): 0.0011 s⁻¹
Koff HIS-cyIL-6 ([4]; purified chain-shuffled Fabs): 0.00063 s⁻¹ and 0.00069 s⁻¹

B3: 129D3 (17.06) (antibody, V domains shown)
VH: EVQLQESGPGLVKPSQTLSLTCTVSGGSITSRYYAWSWIRQPPGKGLEWIGVIDYDGDTYYSPSLKSRVSISWDTSKNQFSLKLSSVTPADTAVYYCARDPDVVTGFHYDYWGQGTMVTVSS
VL: QSALTQPPSVSGTPGQSVTISCAGANNDIGTYAYVSWYQQLPGTAPKLMIYKVTTRASGIPDRFSGSKSGNTASLTISGLQAEDEADYYCASYRNFNNAVFGTGTKLTVL
Rel. Potency ([5]; Exp 22.06 (7TD1)): 1.02

B4: 128G3 (17.06) (antibody, V domains shown)
VH: EVQLQESGPGLVKPSQTLSLTCTVSGGSITTRYYAWSWIRQPPGKGLEWIGVIDYDGDTYYSPSLKSRTTISVDTSKNQFSLKLSSVTPEDTAVYYCARDPDVVTGFHYDYWGQGTMVTVSS
VL: QSALTQPPSVSGAPGQTVTISCAGANNDIGTYAYVSWYQQLPGTAPKLLIYKVTTRASGVPDRFSGSKSGNTASLAISGLQAEDEADYYCASYRNFNNAVFGGGTHLTVL
Rel. Potency ([5]; Exp 22.06 (7TD1)): 0.60
Rel. Potency ([5]; Exp 29.06 (7TD1)): 0.52

B5: 127E2 (24.06) (antibody, V domains shown)
VH: EVQLQESGPGLVKPSQTLSLTCTVSGGSITTRYYAWSWIRQPPGKGLEWIGVIDYDGDTYYSPSLKSRVTISVDTSKNQFSLQLSSVTAEDTAVYYCARDPDVVTGFHYDYWGQGTQVTVSS
VL: QSALTQPPSVSGSPGQTVTISCAGANNDIGTYAYVSWYQQPPGTAPKLLIYKVTTRASGVPDRFSGSKSGNTASLTISGLQAEDEADYYCASYRNFNNAVFGGGTHLTVL
Rel. Potency ([5]; Exp 22.06 (7TD1)): 0.58

B6: 127E2 (17.06) (antibody, V domains shown)
VH: EVQLQESGPGLVKPSQTLSLTCTVSGGSITTRYYAWSWIRQPPGKGLEWIGVIDYDGDTYYSPSLKSRVTISVDTSKNQFSLQLSSVTAEDTAVYYCARDPDVVTGFHYDYWGQGTQVTVSS
VL: QSALTQPPSVSGSPGQTVTISCAGANNDIGTYAYVSWYQQPPGTAPKLLIYKVTTRASGVPDRFSGSKSGNTASLTISGLQAEDEADYYCASYRNFNNAVFGGGTHLTVL
Rel. Potency ([5]; Exp 29.06 (7TD1)): 0.37

B7: 68F2 (#12.9) (antibody, V domains shown)
VH: EVQLQESGPGLVKPSQTLSLTCTVSGGSITTRYYAWSWIRQPPGKGLEWMGVIDYDGDTYYSPSLKSRTSISWDTSKNQFSLQLSSVTPEDTAVYYCARDPDVVTGFHYDYWGQGTQVTVSS
VL: QSALTQPPLVSGTPGQTVTISCAGANNDIGTYAYVSWYQQLPGTAPKLLIYKVTTRASGIPSRFSGSKSGNTASLTISGLQSEDEADYYCASYRNFNNAVFGRGTHLTVLG
Rel. Potency ([5]; Exp 7.07 (7TD1)): 0.93
Rel. Potency ([5]; Exp 29.06 (7TD1)): 1.08

B8: 68F2 (Large batch) (antibody, V domains shown)
VH: EVQLQESGPGLVKPSQTLSLTCTVSGGSITTRYYAWSWIRQPPGKGLEWMGVIDYDGDTYYSPSLKSRTSISWDTSKNQFSLQLSSVTPEDTAVYYCARDPDVVTGFHYDYWGQGTQVTVSS
VL: QSALTQPPLVSGTPGQTVTISCAGANNDIGTYAYVSWYQQLPGTAPKLLIYKVTTRASGIPSRFSGSKSGNTASLTISGLQSEDEADYYCASYRNFNNAVFGRGTHLTVLG
Rel. Potency ([5]; Exp 29.06 (7TD1)): 0.43

B9: 129F2 (17.06) (antibody, V domains shown)
VH: EVQLQESGPGLVKPSQTLSLTCTVSGGSITSRYYAWSWIRQPPGKGLEWIGVIDYDGDTYYSPSLKSRVTISWDTSKNQFSLKLSSVTAEDTAVYYCARDPDVVTGFHYDYWGQGTMVTVSS
VL: QSALTQPPSVSGTPGQTVTISCAGANNDIGTYAYVSWYQQLPGTAPKLMIYKVTTRASGIPDRFSGSKSGNTASLTISGLQSEDEADYYCASYRNFNNAVFGGGTKLTVL
Rel. Potency ([5]; Exp 22.06 (7TD1)): 1.14

B10: 68F2 (12.9) (antibody, V domains shown)
VH: EVQLQESGPGLVKPSQTLSLTCTVSGGSITTRYYAWSWIRQPPGKGLEWMGVIDYDGDTYYSPSLKSRTSISWDTSKNQFSLQLSSVTPEDTAVYYCARDPDVVTGFHYDYWGQGTQVTVSS
VL: QSALTQPPLVSGTPGQTVTISCAGANNDIGTYAYVSWYQQLPGTAPKLLIYKVTTRASGIPSRFSGSKSGNTASLTISGLQSEDEADYYCASYRNFNNAVFGRGTHLTVLG
Rel. Potency [6]: 0.8

B11: 68F2 (A8.10) (antibody, V domains shown)
VH: EVQLQESGPGLVKPSQTLSLTCTVSGGSITTRYYAWSWIRQPPGKGLEWMGVIDYDGDTYYSPSLKSRTSISWDTSKNQFSLQLSSVTPEDTAVYYCARDPDVVTGFHYDYWGQGTQVTVSS
VL: QSALTQPPLVSGTPGQTVTISCAGANNDIGTYAYVSWYQQLPGTAPKLLIYKVTTRASGIPSRFSGSKSGNTASLTISGLQSEDEADYYCASYRNFNNAVFGRGTHLTVLG
Rel. Potency [6]: 1.3
